Where a chain is given by its changes, count along the chain named.
B1: H1.59 L1 XENP34515 (antibody, V domains shown)
VH: QLQVQESGPGLVKPSETLSLTCTVSGGSISNSYFSWGWIRQPPGKGLEWIGSFYYGENTYYNPSLKSRATISIDTSKSQFSLKLSSVTAADTAVYYCPRGPTMIRGVIDSWGQGTLVTVSS
VL: EIVLTQSPATLSLSPGERATLSCRASQSVRSYLAWYQQKPGQAPRLLIYDASNRATGIPARFSGSGSGTDFTLTISSLEPEDFAVYYCQQRSNWPPTFGQGTKVEIK
B2: H1.61 L1 XENP34517 (antibody, V domains shown)
VH: B1 VH with N58K, T59I
VL: B1 VL
B3: H1.53 L1 XENP34509 (antibody, V domains shown)
VH: B1 VH with Y55H, N58K
VL: B1 VL
B4: H1.46 L1 XENP34502 (antibody, V domains shown)
VH: B1 VH with F53I, N58K
VL: B1 VL
B5: H1.60 L1 XENP34516 (antibody, V domains shown)
VH: B1 VH with N58S
VL: B1 VL
B6: H1.76 L1 XENP34532 (antibody, V domains shown)
VH: B1 VH with N58K, A90E
VL: B1 VL
B7: H1.51 L1 XENP34507 (antibody, V domains shown)
VH: B1 VH with Y54N, N58K
VL: B1 VL
B8: H1.65 L1 XENP34521 (antibody, V domains shown)
VH: B1 VH with N58K, Y60S
VL: B1 VL
B9: H1.62 L1 XENP34518 (antibody, V domains shown)
VH: B1 VH with N58K, Y60F
VL: B1 VL
B10: H1.54 L1 XENP34510 (antibody, V domains shown)
VH: B1 VH with Y55S, N58K
VL: B1 VL
B11: H1.66 L1 XENP34522 (antibody, V domains shown)
VH: B1 VH with N58K, N62A
VL: B1 VL
B12: H1.49 L1 XENP34505 (antibody, V domains shown)
VH: B1 VH with Y54H, N58K
VL: B1 VL
B13: H1.67 L1 XENP34523 (antibody, V domains shown)
VH: B1 VH with N58K, N62S
VL: B1 VL
B14: H1.57 L1 XENP34513 (antibody, V domains shown)
VH: B1 VH with E57S, N58K
VL: B1 VL
B15: H1.40 L1 XENP34496 (antibody, V domains shown)
VH: B1 VH with I50V, N58K
VL: B1 VL
B16: H1.75 L1 XENP34531 (antibody, V domains shown)
VH: B1 VH with N58K, K83Q
VL: B1 VL
B17: H1.72 L1 XENP34528 (antibody, V domains shown)
VH: B1 VH with N58K, A69V
VL: B1 VL
B18: H1.39 L1 XENP34495 (antibody, V domains shown)
VH: B1 VH with P42H, N58K
VL: B1 VL
B19: H1.70 L1 XENP34526 (antibody, V domains shown)
VH: B1 VH with N58K, S67G
VL: B1 VL
B20: H1.43 L1 XENP34499 (antibody, V domains shown)
VH: B1 VH with S52T, N58K
VL: B1 VL
B21: H1.71 L1 XENP34527 (antibody, V domains shown)
VH: B1 VH with N58K, A69F
VL: B1 VL
B22: H1.63 L1 XENP34519 (antibody, V domains shown)
VH: B1 VH with N58K, Y60H
VL: B1 VL
B23: H1.69 L1 XENP34525 (antibody, V domains shown)
VH: B1 VH with N58K, K66Q
VL: B1 VL
B24: H1.44 L1 XENP34500 (antibody, V domains shown)
VH: B1 VH with S52V, N58K
VL: B1 VL
B25: H1.68 L1 XENP34524 (antibody, V domains shown)
VH: B1 VH with N58K, K66E
VL: B1 VL
B26: H1.73 L1 XENP34529 (antibody, V domains shown)
VH: B1 VH with N58K, I73V
VL: B1 VL
B27: H1.42 L1 XENP34498 (antibody, V domains shown)
VH: B1 VH with S52N, N58K
VL: B1 VL
B28: H1.74 L1 XENP34530 (antibody, V domains shown)
VH: B1 VH with N58K, S78N
VL: B1 VL
B29: H1.56 L1 XENP34512 (antibody, V domains shown)
VH: B1 VH with E57G, N58K
VL: B1 VL
B30: H1.45 L1 XENP34501 (antibody, V domains shown)
VH: B1 VH with S52Y, N58K
VL: B1 VL
B31: H1.55 L1 XENP34511 (antibody, V domains shown)
VH: B1 VH with G56S, N58K
VL: B1 VL
B32: H1.64 L1 XENP34520 (antibody, V domains shown)
VH: B1 VH with N58K, Y60N
VL: B1 VL
B33: H1.47 L1 XENP34503 (antibody, V domains shown)
VH: B1 VH with F53V, N58K
VL: B1 VL
B34: H1.58 L1 XENP34514 (antibody, V domains shown)
VH: B1 VH with N58D
VL: B1 VL
B35: H1.41 L1 XENP34497 (antibody, V domains shown)
VH: B1 VH with S52E, N58K
VL: B1 VL
B36: H1.83 L1 XENP34539 (antibody, V domains shown)
VH: B1 VH with N58K, M103A
VL: B1 VL
B37: H1.89 L1 XENP34545 (antibody, V domains shown)
VH: B1 VH with N58K, I104D
VL: B1 VL
B38: H1.77 L1 XENP34533 (antibody, V domains shown)
VH: B1 VH with N58K, A90V
VL: B1 VL
B39: H1.86 L1 XENP34542 (antibody, V domains shown)
VH: B1 VH with N58K, M103T
VL: B1 VL
B40: H1.81 L1 XENP34537 (antibody, V domains shown)
VH: B1 VH with N58K, T102N
VL: B1 VL
B41: H1.105 L1 XENP34561 (antibody, V domains shown)
VH: B1 VH with N58K, S110Y
VL: B1 VL
B42: H1.78 L1 XENP34534 (antibody, V domains shown)
VH: B1 VH with N58K, P98A
VL: B1 VL
B43: H1.88 L1 XENP34544 (antibody, V domains shown)
VH: B1 VH with N58K, I104A
VL: B1 VL
B44: H1.82 L1 XENP34538 (antibody, V domains shown)
VH: B1 VH with N58K, T102S
VL: B1 VL
B45: H1 L1.34 XENP34597 (antibody, V domains shown)
VH: B1 VH with N58K
VL: B1 VL with E79Q, P80S
B46: H1 L1.43 XENP34606 (antibody, V domains shown)
VH: B1 VH with N58K
VL: B1 VL with S92N
B47: H1 L1.24 XENP34587 (antibody, V domains shown)
VH: B1 VH with N58K
VL: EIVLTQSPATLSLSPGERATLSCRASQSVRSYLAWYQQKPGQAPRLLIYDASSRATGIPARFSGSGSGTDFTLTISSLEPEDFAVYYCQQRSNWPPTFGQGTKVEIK

molecular target: T1, human TGFßRII (antigen of the Octet experiments) (human, UniProt P37173 23-166); assay: BLI (Octet)
T1 sequence (P37173 23-166): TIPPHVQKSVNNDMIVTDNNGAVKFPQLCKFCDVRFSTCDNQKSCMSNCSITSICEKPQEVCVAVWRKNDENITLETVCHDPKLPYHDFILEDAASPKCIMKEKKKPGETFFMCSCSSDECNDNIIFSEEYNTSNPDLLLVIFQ

| Kd [nM] | Binder |
| --- | --- |
| 0.507 | B1 |
| 0.791 | B2 |
| 0.366 | B3 |
| 3.2 | B4 |
| 3.86 | B5 |
| 0.829 | B6 |
| 35.6 | B7 |
| 15.1 | B8 |
| 1.35 | B9 |
| 0.666 | B10 |
| 0.623 | B11 |
| 0.338 | B12 |
| 1.95 | B13 |
| 7.71 | B14 |
| 0.338 | B15 |
| 1.18 | B16 |
| 0.42 | B17 |
| 0.425 | B18 |

| Kd [nM] | Binder |
| --- | --- |
| 0.789 | B19 |
| 0.627 | B20 |
| 0.588 | B21 |
| 5.28 | B22 |
| 1.41 | B23 |
| 2.95 | B24 |
| 1.5 | B25 |
| 0.713 | B26 |
| 2.59 | B27 |
| 0.771 | B28 |
| 0.203 | B29 |
| 1.01 | B30 |
| 0.348 | B31 |
| 5.37 | B32 |
| 0.677 | B33 |
| 2.49 | B34 |
| 18.9 | B35 |

molecular target: T1, human TGFßRII (antigen of the Octet …); assay: BLI (Octet); remark: another data set of the same source

| Kd [nM] | Binder |
| --- | --- |
| 3.47 | B36 |
| 0.141 | B37 |
| 0.749 | B38 |
| 0.0662 | B39 |
| 300 | B40 |
| 0.455 | B41 |
| 0.699 | B42 |
| 0.402 | B43 |
| 2.41 | B44 |

molecular target: T1, human TGFßRII (antigen of the Octet …); assay: BLI (Octet); remark: another data set of the same source

| Kd [nM] | Binder |
| --- | --- |
| 1.61 | B45 |
| 1.08 | B46 |
| 0.644 | B47 |
